± gives the uncertainty stated by the source.
Assay: self-splicing fitness, log relative to wild type (ln ratio); higher = more splicing; Tetrahymena group I intron in knt gene, E. coli kanamycin selection, DiMSum; sequences stand for … in CUCUCU…GGAGGGAAAAGUUAUCAGGCAUGCACCUGGUAGCUAGUCUUUAAACCAAUAGAUUGCAUCGGUUUAAAAGGCAAGACCGUCAAAUUGCGGGAAAGGGGUCAACAGCCGUUCAGUACCAAGUCUCAGGGGAAACUUUGAGAUGGCCUUGCAAAGGGUAUGGUAAUAAGCUGACGGACAUGGUCCUAACCACGCAGCCAAGUCCUAAGUCAACAGAUCUUCUGUUGAUAUGGAUGCAGUUCACAGACUAAAUGUCGGUCGGGGAAGAUGUAUUCUUCUCAUAAGAUAUAGUCGGACCUCUCCUUAAUGGGAGCUAGCGGAUGAAGUGAUGCAACACUGGAGCCGCUGGGAACUAAUUUGUAUGCGAAAGUAUAUUGAUUAGUUUUGGAGUACUCGUGGUCG
Method in brief: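 Six replicate transformations of E. coli BL21(DE3) with a pET-22b(+) library were grown overnight at 37°C or 30°C. The library randomised all eight P1ex-region intron nucleotides, the intron lying in the knt kanamycin-resistance gene, and plates were LB agar with or without 25 μg/mL kanamycin plus 100 μg/mL carbenicillin, 50 μM IPTG and 0.2% rhamnose. Pooled colonies were amplicon-sequenced on an Illumina HiSeq 2500, and fitness is the DiMSum error-weighted combination of wild-type-normalised replicate fold changes, kanamycin versus none.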

Sequence	self-splicing fitness (ln) (30 °C)	self-splicing fitness (ln) (37 °C)
CCAUAGCAAUAUUACGCCCA	-1.9 ± 0.34	-1.86 ± 0.35
GUUUAGCAAUAUUACGGCCA	-1.35 ± 0.14	-0.725 ± 0.15
AGGGAGCAAUAUUACGUAUG	-2.98 ± 0.3	-2.37 ± 0.49
UCUAAGCAAUAUUACGCGCA	-0.493 ± 0.11	-0.561 ± 0.13
GGAGAGCAAUAUUACGCAUA	-3.12 ± 0.26	-2.73 ± 0.23
CAUGAGCAAUAUUACGCUGA	-3.24 ± 0.18	-3.09 ± 0.23
CAAUAGCAAUAUUACGAUGU	-3.19 ± 0.14	-2.32 ± 0.2
GUAUAGCAAUAUUACGCCCU	-0.766 ± 0.2	0.0529 ± 0.26
UAUUAGCAAUAUUACGUAGC	-2.37 ± 0.22	-1.31 ± 0.27
AAGUAGCAAUAUUACGAUCG	-1.43 ± 0.1	-0.453 ± 0.15
AGGCAGCAAUAUUACGGGAA	-3.59 ± 0.23	-2.42 ± 0.18
ACCCAGCAAUAUUACGUCAG	-3.14 ± 0.11	-1.22 ± 0.092
CUACAGCAAUAUUACGAUCG	-0.0619 ± 0.061	0.736 ± 0.085
AGAGAGCAAUAUUACGGCUU	-1.65 ± 0.16	-1.15 ± 0.25
AUCGAGCAAUAUUACGUGAG	-1.78 ± 0.11	-1.53 ± 0.15
CUUUAGCAAUAUUACGCCCG	-0.47 ± 0.17	0.513 ± 0.24
ACUAAGCAAUAUUACGGUGU	-3.49 ± 0.15	-2.23 ± 0.12
CCAGAGCAAUAUUACGAUUC	-4.06 ± 0.22	-2.67 ± 0.21
UCUCAGCAAUAUUACGGGGU	-4.46 ± 0.37	-2.8 ± 0.25
CCAAAGCAAUAUUACGGACC	–	-1.51 ± 0.29
CGCUAGCAAUAUUACGGACC	-2.14 ± 0.31	–
UGCGAGCAAUAUUACGGCGU	-2.58 ± 0.18	-0.48 ± 0.2
ACAAAGCAAUAUUACGGGCC	-3.9 ± 0.3	-2.32 ± 0.24
UGGAAGCAAUAUUACGAUCA	-0.348 ± 0.093	0.181 ± 0.12
GGACAGCAAUAUUACGACUU	-0.232 ± 0.085	1.19 ± 0.1

Sequence	self-splicing fitness (ln) (30 °C)	self-splicing fitness (ln) (37 °C)
UAACAGCAAUAUUACGGAAA	-2.91 ± 0.23	-1.11 ± 0.14
GCCAAGCAAUAUUACGAUGC	-1.7 ± 0.09	-0.188 ± 0.11
GCAUAGCAAUAUUACGAAAG	-2.72 ± 0.2	-2.69 ± 0.24
CGGCAGCAAUAUUACGACUG	-1.74 ± 0.24	-0.611 ± 0.26
GUUUAGCAAUAUUACGACUA	-0.518 ± 0.18	0.0789 ± 0.15
GUGUAGCAAUAUUACGGUAA	-2.48 ± 0.14	-1.49 ± 0.11
UCGCAGCAAUAUUACGAAAU	-3.62 ± 0.21	-2.41 ± 0.24
CUGAAGCAAUAUUACGUUAG	-0.376 ± 0.063	0.25 ± 0.096
AAAUAGCAAUAUUACGUGCU	-0.869 ± 0.11	-1.22 ± 0.15
ACCAAGCAAUAUUACGACUA	-0.894 ± 0.099	-0.585 ± 0.093
CAUCAGCAAUAUUACGAUUG	-1.45 ± 0.054	-0.782 ± 0.071
CUAAAGCAAUAUUACGGACA	-3.1 ± 0.17	-2.34 ± 0.21
GGGUAGCAAUAUUACGCAGA	-2.97 ± 0.28	-1.93 ± 0.26
CUCAAGCAAUAUUACGGUGU	-3.3 ± 0.12	-1.31 ± 0.13
GUUAAGCAAUAUUACGCGAC	-3.02 ± 0.21	-2.15 ± 0.22
GUGCAGCAAUAUUACGGCGA	-0.548 ± 0.064	0.119 ± 0.092
CCUAAGCAAUAUUACGACCA	-3.19 ± 0.21	-1.46 ± 0.17
CGAUAGCAAUAUUACGUAGC	-3.25 ± 0.19	-2.68 ± 0.34
UGCGAGCAAUAUUACGGUUU	-3.14 ± 0.3	-2.62 ± 0.34
AGACAGCAAUAUUACGCAUC	-2.73 ± 0.11	-2.18 ± 0.16
CCUUAGCAAUAUUACGAUAA	-3.53 ± 0.25	-2.88 ± 0.27
UUGCAGCAAUAUUACGAUUA	-0.176 ± 0.12	0.339 ± 0.087
UCAAAGCAAUAUUACGAUUA	-1.26 ± 0.11	-1.16 ± 0.12
UUAGAGCAAUAUUACGCGAU	-3.09 ± 0.19	-2.19 ± 0.24
GAGGAGCAAUAUUACGGCCC	-0.89 ± 0.29	-0.616 ± 0.49

Sequence	self-splicing fitness (ln) (30 °C)	self-splicing fitness (ln) (37 °C)
GCGGAGCAAUAUUACGACGG	-2.27 ± 0.19	-1.13 ± 0.2
GCUUAGCAAUAUUACGUGAC	-1.54 ± 0.09	-1.08 ± 0.13
GCAGAGCAAUAUUACGAUAU	-3.38 ± 0.29	-1.72 ± 0.2
GGUCAGCAAUAUUACGUAAG	-1.87 ± 0.15	-0.22 ± 0.18
AUUGAGCAAUAUUACGUAUG	-3.63 ± 0.46	–
UAUAAGCAAUAUUACGUCCG	-0.775 ± 0.11	-0.223 ± 0.15
CCUGAGCAAUAUUACGGCUU	-3.73 ± 0.29	-3.02 ± 0.27
CAUGAGCAAUAUUACGCCAG	-1.94 ± 0.19	-1.84 ± 0.24
AACUAGCAAUAUUACGGGCU	-1.29 ± 0.11	-1.19 ± 0.16
UAUGAGCAAUAUUACGCAAG	-2.66 ± 0.24	-1.36 ± 0.23
CUUCAGCAAUAUUACGCAUG	-1.48 ± 0.061	0.119 ± 0.068
CAUCAGCAAUAUUACGCGCG	0.0702 ± 0.07	0.438 ± 0.084
AGAUAGCAAUAUUACGCUAU	-3.58 ± 0.4	-3.47 ± 0.24
UCUGAGCAAUAUUACGCAGG	-2.76 ± 0.32	-1.29 ± 0.21
CACAAGCAAUAUUACGUAUU	-3.81 ± 0.17	-2.66 ± 0.15
GAUAAGCAAUAUUACGUACG	-1.67 ± 0.1	-0.494 ± 0.11
CCUUAGCAAUAUUACGAUGU	-2.14 ± 0.13	-1.49 ± 0.16
AAUGAGCAAUAUUACGCGGU	-2.93 ± 0.17	-3.12 ± 0.32
UUGCAGCAAUAUUACGCGGC	–	-2.28 ± 0.46
UUGCAGCAAUAUUACGGGAG	-1.53 ± 0.11	-1.58 ± 0.13
CUGAAGCAAUAUUACGUGCU	-4.66 ± 0.34	-2.95 ± 0.34
AUAUAGCAAUAUUACGUAAG	-1.61 ± 0.14	-0.705 ± 0.19
GAUUAGCAAUAUUACGACUC	-0.282 ± 0.13	0.2 ± 0.16
CAGAAGCAAUAUUACGAUUG	-1.92 ± 0.11	-1.47 ± 0.12
UUGUAGCAAUAUUACGUGGC	–	-2.15 ± 0.47

Sequence	self-splicing fitness (ln) (30 °C)	self-splicing fitness (ln) (37 °C)
ACCAAGCAAUAUUACGUUCA	-1.65 ± 0.11	-1.18 ± 0.1
UAGCAGCAAUAUUACGUACC	-1.91 ± 0.38	–
UACGAGCAAUAUUACGAGCU	-2.28 ± 0.33	–
GCCGAGCAAUAUUACGACAC	-1.4 ± 0.12	-0.338 ± 0.18
GUUUAGCAAUAUUACGGGAC	–	-1.98 ± 0.39
CUCCAGCAAUAUUACGGUAC	-2.28 ± 0.12	-1.86 ± 0.16
CCUAAGCAAUAUUACGGGCG	-2.15 ± 0.11	-0.76 ± 0.1
GAAGAGCAAUAUUACGCCUU	-2.52 ± 0.37	-1.55 ± 0.33
UGCGAGCAAUAUUACGCUAA	-1.92 ± 0.21	-2.48 ± 0.26
GUUGAGCAAUAUUACGACCU	-2.63 ± 0.16	-1.56 ± 0.17
GCAGAGCAAUAUUACGAGGU	–	-2.24 ± 0.31
GGCCAGCAAUAUUACGUCAG	-1.91 ± 0.13	-2.98 ± 0.33
UUCAAGCAAUAUUACGUGCA	-0.545 ± 0.047	-0.00601 ± 0.065
UACAAGCAAUAUUACGGCCU	-1.09 ± 0.094	-0.547 ± 0.13
GCGGAGCAAUAUUACGUCUG	-3.82 ± 0.42	-2.44 ± 0.41
ACUGAGCAAUAUUACGGUAA	-2.81 ± 0.27	-2.8 ± 0.34
UUGAAGCAAUAUUACGCGAU	-1.96 ± 0.34	–
CCUAAGCAAUAUUACGUUCU	-2.57 ± 0.16	-3.16 ± 0.34
AGUCAGCAAUAUUACGAUAU	-0.289 ± 0.096	0.475 ± 0.11
CGUGAGCAAUAUUACGCUUU	-2.54 ± 0.35	-1.98 ± 0.28
AGCUAGCAAUAUUACGCUUU	-3.48 ± 0.25	-2.57 ± 0.23
UAUUAGCAAUAUUACGUGAA	-2.17 ± 0.13	-1.87 ± 0.15
GAGUAGCAAUAUUACGAAUU	-2.14 ± 0.22	-1.36 ± 0.17

Reference: the supplement of paper PMC7877785
